Assay results from publication PMC6265457 (Nucleic Acids Research, 2018).

Columns and labels:
Test in all cases: pull-down
FLAG-Swd1 = biological target: T1, FLAG-Swd1 (S. cerevisiae, UniProt P39706 1-426)
T1 sequence: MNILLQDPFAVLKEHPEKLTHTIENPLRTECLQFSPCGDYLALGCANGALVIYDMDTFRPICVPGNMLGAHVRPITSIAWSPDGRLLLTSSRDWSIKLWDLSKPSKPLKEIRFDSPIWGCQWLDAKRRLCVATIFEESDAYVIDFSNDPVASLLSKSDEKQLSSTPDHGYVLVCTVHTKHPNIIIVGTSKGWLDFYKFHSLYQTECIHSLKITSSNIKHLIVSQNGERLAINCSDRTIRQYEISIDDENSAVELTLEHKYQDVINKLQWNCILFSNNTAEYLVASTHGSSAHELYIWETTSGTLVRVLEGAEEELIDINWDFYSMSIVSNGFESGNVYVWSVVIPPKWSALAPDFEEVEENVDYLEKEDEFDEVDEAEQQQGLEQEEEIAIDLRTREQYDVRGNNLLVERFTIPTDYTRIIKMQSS

FLAG-Spp1 (wild type) = biological target: T2, FLAG-Spp1 (wild type) (S. cerevisiae, UniProt Q03012 1-353)
T2 sequence: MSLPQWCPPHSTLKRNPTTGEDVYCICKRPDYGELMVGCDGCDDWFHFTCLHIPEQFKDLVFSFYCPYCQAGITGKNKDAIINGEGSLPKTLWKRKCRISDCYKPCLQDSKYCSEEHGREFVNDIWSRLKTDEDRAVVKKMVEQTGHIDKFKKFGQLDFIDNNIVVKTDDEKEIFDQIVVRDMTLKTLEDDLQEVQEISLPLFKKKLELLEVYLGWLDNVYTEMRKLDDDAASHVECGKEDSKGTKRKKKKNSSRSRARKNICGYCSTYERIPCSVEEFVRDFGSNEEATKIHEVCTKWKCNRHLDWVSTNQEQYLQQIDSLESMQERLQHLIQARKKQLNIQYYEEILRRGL

FLAG-Swd2 = biological target: T3, FLAG-Swd2 (S. cerevisiae, UniProt P36104 1-329)
T3 sequence: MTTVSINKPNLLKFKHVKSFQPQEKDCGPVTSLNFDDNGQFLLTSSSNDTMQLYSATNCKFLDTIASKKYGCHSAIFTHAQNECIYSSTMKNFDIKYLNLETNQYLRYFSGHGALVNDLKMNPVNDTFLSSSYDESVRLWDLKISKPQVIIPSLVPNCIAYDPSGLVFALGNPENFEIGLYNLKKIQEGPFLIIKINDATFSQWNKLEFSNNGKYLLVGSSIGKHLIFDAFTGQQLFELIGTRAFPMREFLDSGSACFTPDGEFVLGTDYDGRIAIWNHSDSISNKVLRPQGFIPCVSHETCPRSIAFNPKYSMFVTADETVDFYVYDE

B1: GST-tagged Set1 fragment, residues 1–123 (domain or fragment)
chain: MSNYYRRAHASSGSYRQPQEQPQYSRSGHYQYSNGHSHQQYSSQYNQRRRYNHNDGTRRRYNDDRPHSSNNASTRQYYATNNSQSGPYVNKKSDISSRRGMSQSRYSNSNVHNTLASSSGSLP
binding result (FLAG-Swd1): binds

B2: GST-tagged n-SET fragment (Set1 residues 762–937) (domain or fragment)
chain: MDLQNAIKDEEDMLILKQLLSTYTPTVTPETSAALEYKIWQSRRKVLEEEKASDWQIELNGTLFDSELQPGSSFKAEGFRKIADKLKINYLPHRRRVHQPLNTVNIHNERNEYTPELCQREESSNKEPSDSVPQEVSSSRDNRASNRRFQQDIEAQKAAIGTESELLSLNQLNKRK
binding result (FLAG-Spp1 (wild type)): binds

B3: GST-tagged Set1 fragment, residues 124–229 (domain or fragment)
chain: TESALLLQQRPPSVLRYNTDNLKSKFHYFDPIKGEFFNKDKMLSWKATDKEFSETGYYVVKELQDGQFKFKIKHRHPEIKASDPRNENGIMTSGKVATHRKCRNSL
binding result (FLAG-Swd2): binds
